{"source": "the DeepSol protein solubility set"}
{"test": "soluble on expression in E. coli; label from the status in PepcDB or PDB records"}
{"sequence": "MDCYVGATTGALKGAILKENTFQNLNEIKSLDPKSDEITSMIWNDEQQTEILIARVNRDLQLLGIEENELVSILTVTGGTGPIKGLHKADEKIVTCVESGELQIWNDKSEILSEWKTGPGVAVMRGSTEKPEIVTGGMKNLLKTWNLETGQQTWSAKNVPPDMLGLEIPIMITDARFIPGQNTILEATKLHEMRLYDPRAQRRPVKKIPFMENPIMCTSLTYKTNQILAANSIGEMGLFDLRSKVHPMCKFKGQAGSIRSITAHPTLPLAASVGIDRFLRVHDLQSRKLIHKIYCKTRLNRVLLRDNLSILNDKKPASKKEINEDETEYGNMTKDGYRSENEDDEDDDDVIEEDDVWGVMEPVKRAKKSSDDDVEEIQITSETIAVPSKNSQKLKRKNVLEADEIKEEEGDSDEAEVKKTTKKVLKKKKRV", "soluble on expression in E. coli": "not soluble"}
{"sequence": "MGSDKIHHHHHHMADFPTRPDEVDAVWLEARLADAGVLDGARIVKVEWQSIGTGQVGDTARFSLTYDRPAPLAPASVAAKFPSSDPTSRQTAASFSLYKREVNFYRDVAGLIDMRVPRAYAALLDDNGCDFVLLFEDLGPCEAGNQLSGCGIDQARDALRQAAALHAATLDHPVLDSEWLQTDPQASAMLRALYPQAQAIFRERYADALDPALMAICDELDECADLWFDRKPARRSFLHGDFRLDNMLFGIRDGQEPIALVDWQTAAVGCGLTDIGYFMGCGIGSGLRRPHEAALLDLYCAEMTRRGVAMTRDEIMDDYRIGALHGVSTAVFSSAFVVRTERGDANFLSMARGACELALEHNSLGALKRRMENA", "soluble on expression in E. coli": "not soluble"}
{"sequence": "AMTGSDGTKILTITRPDTHGTKTSLTARLYSDTTKKATLDTIFTVVTSPDSDKAKMWGHMPETVTAADGAVFKRPLLLKELSSTSGRTAIAEDNEDWAQFTQAQAISTSSNGCGSEYVPSQAGLESLYEANRGNAMKTVQGWPVASSYLSSTTGSSSLEQRDFKAVNLSSGTSSIIPSATKELLTCQ", "soluble on expression in E. coli": "not soluble"}
{"sequence": "MSLSSLGEELETKISEEVGFKPLGIKRILPAASTKLPFASLDNFAIDNHNNKYAAASGELLICGDLQKLREYVTNDNEEDNYEPEYKHEISNIIALKFMNGKLILVTKSGRICEYSTENLNQELMNHELKLDLVSVKTLPSKIIMLDSSNVLKGLSLSNLNLENIAENISSFDVLYDKLVYISVLKDIYVSDTISNGVNKEIILPESLSEELDDGYEALDIKILSENEYFVVFGNNVSPDESDPSYDHKTYVVSQKEESVVYQETFDIAPAFASVLRYPCYYNVILPGIFEEDKNVNIIGSATSSEISVWDSVNVVQPDQDSERAVFPISKETDEDTTPIGMCLDFSTVGEIPEPCPGVDNTDSLPLVYSLTNEGFLQINGFYHTGLIKAGKYDIKLLGERIYSIYEQDGGEVEEGHHHHHH", "soluble on expression in E. coli": "soluble"}
{"sequence": "MDILLVDGYNMIGAWPQLKDLKANSFEEARDVLIQKMAEYQSYTGNRVIVVFDAHLVKGLEKKQTNHRVEVIFTKENETADERIEKLAQALNNIATQIHVATSDYTEQWAIFGQGALRKSARELLREVETIERRIERRVRKITSEKPAGKIALSEEVLKTFEKWRRGDLDLEHHHHHH", "soluble on expression in E. coli": "not soluble"}
{"sequence": "MGSDKIHHHHHHMSTKHSKAAAEFLKNKKQAAWHDETLWLVRAKRDRLSKEVPEWEELRNMACATKLYSNSHLDELLVEFENNARANGAHVYWAKDADEYCNIVYNILNQHGVKHFIKSKSMLAEECELNPFLESKGIEVVESDLGERILQLMHLKPSHIVLPAIHIKREQVGELFEREMGTEKGNFDPTYLTHAARKNLRQKFIHAEAAMTGANFAVASTGEIVVCTNEGNADMGTSQPKLQIAAFGMEKIVPDRESLGVFTRLLARSATGQPITTYTSHYRKPREGGELHIIIVDNGRSKILADPKHIKTLNCIRCGACMNTCPVYRRSGGYSYTYFIPGPIGINLGMLKAPLHYYDNVSACSLCYSCSFVCPAKVDLAEQIYLWRQDLDKLGKADRMKKVMSGGMEFMMKRPSIFNMALKWAPLVNGVPRFLIYNGLNDWGKGREMPKFAKESFNEMWKKGKVK", "soluble on expression in E. coli": "not soluble"}
{"sequence": "MSLTALSALIEQKLQSLGTILCQSFPELSPEKIHEAIQQNSNHPELPVYQLGYAIAMSDFVEKVLQKYPHLVKQWWEKSPCFADCTAYIERLNKELANVHDETALYQTLRQFRNIEMAKLSFCQSLNLATVEEIFVQLSQLAESLIIAARDWLYHQACAEIGTPMDEQGNPQQLYILGMGKLGGFELNFSSDIDLIFTYPSQGETSVENTNARRSVDNGKFFTRLGQRLISALDEFTSDGFVYRTDMRLRPFGDSGVLVLSFSAMEQYYQDQGRDWERYAMIKGRVLGAQTKDPNVSKLKKMLRPFVYRRYIDFSVIQSLREMKGKIEREVRRRGLKDNIKLGAGGIREVEFIVQVFQLIRGGREINLQQHSLLKILPEITKLRLITEQQFHDLRESYIFLRRVENILQAINDQQTQTLPTDEIDQIRLVEACKTFTCLNENNQTIEKHYPIENWDDFYRTLQQKQEKVRAVFTQLIGDEQDESSQTDSQWQDFLEADFEDIEQTLLESSVSENNIDEVLEKLAQFKDGLNHRVIGSRGRDVLSHLMPTVLALIFEQENYRTLLPRILNIIEKISSRTTYLELLLENPRALQQVIELCAQSQLISEQLAHYPILLDELLNTEALRHPLPFTQYPAELHQYLLRLPPDDEEQLIDALRQFKQATLLKVAAADILGALPVMKVSDHLTYLAEAIIEVVVNLAWKQVSSRFGVPEHLQNNEKGFLVIGYGKLGGIELGYKSDLDLVFLYDAVESQTTGGKKVIDSNQFYLRLAQKIVSIFSINTSAGVLYEADMRLRPSGDAGLIGCSLSAFSHYQLNDAWTWEKQALVRARPVFGESSLKAKFEHIRQQVLSASRDIEQLKQDVVEMRKKMFAHLSHSKHSEFNLKTDRGGITDIEFIAQYLMLANAPKKPQLTKWSDNVRIFDDMAEAKIISQTDCDTLKQCYVDLRNTIHHLNLLGKSSVVEDSEFVKERSFIQAFWDRLFVSEGHHHHHH", "soluble on expression in E. coli": "soluble"}
{"sequence": "MALHHHHHHGVTGELRRRADGIWQRILAHPFVAELYAGTLPMEKFKYYLLQDYNYLVNFAKALSLAASRAPSVDLMKTALELAYGTVTGEMANYEALLKEVGLSLRDAAEAEPNRVNVSYMAYLKSTCALEGFYQCMAALLPCFWSYAEIAERHGGKLRENPVHVYKKWASVYLSPEYRGLVERLRAVLDSSGLSAEELWPYFKEASLYELEFWQAAYEGH", "soluble on expression in E. coli": "soluble"}
{"sequence": "MVLAGGVGKRLLPLTRERPKPYLPLAGKPLYMYAVEQVAMVRSLLDRAVMVTPPGHPTPPGSLPSWLDTVEQQGEGVEAGLATALKRLGGGEEVVVSFVGYLARPNTLVRHVLDFYSVTRYKLVLALAPVTRGSESFGFVDADPSTGRVLGFSGSREEWMAGRGRVFAGVLAGDPEALEVLAGEGFVEGINTLARRGLVGSVVWPGEWLEVGYPCDLLEAPRLVVEAWAAVISAKARVARSSVIQGGVVIEEDAEVGEGAVVEGPAYLGRGAVVGRNSVVGPGVVLEEGAVVGDLVSIERSVMLERAEASGPSRLEGVVIGDGAYIAPLAAATNREGCTVVAPKTRLGPRATLEPGKTYTLEHHHHHH", "soluble on expression in E. coli": "not soluble"}
{"sequence": "MILLKSEHGGKRKEMRQDDLMGPNHFSLRIMYKIIIYTYPVSLYAVKELNLSKTFSISALGILNSNSNRSPAKKQTFFSACVAKSYSSFFISICILDLASHL", "soluble on expression in E. coli": "soluble"}
{"sequence": "MKAWEIARKPRVVVYPGDPLTYVRAMMRREEEPIAVVVVESEKSEKVVGYITWNEVIQVTSHYSHLRAKDAMLDYPVAFKDDDIGDVYKRMVEEKVYAIPVLESRDNPNLVGVVTVADIVRALRRAGFK", "soluble on expression in E. coli": "not soluble"}
{"sequence": "VELIGRSEWINQYRRRLQQLSETDIAVWLYGAPGTGRMTGARYLHQFGRNAQGEFVYRELTPDNAPQLNDFIALAQGGTLVLSHPEHLTREQQYHLVQLQSQEHRPFRLIGIGDTSLVELAASNHIIAELYYCFAMTQIACLPLT", "soluble on expression in E. coli": "soluble"}
{"sequence": "PPYTIVYFPVRGRAEAMRMLLADQGQSWKEEVVTIDTWMQGLLKPTCLYGQLPKFEDGDLTLYQSNAILRHLGRSLGLYGKNQREAAQMDMVNDGVEDLRGKYVTLIYTNYENGKNDYVKALPGHLKPFETLLSQNQGGKAFIVGDQISFADYNLLDLLLIHQVLAPGCLDNFPLLSAYVARLSARPKIKAFLSSPEHVNRPINGNGKQ", "soluble on expression in E. coli": "soluble"}
{"sequence": "MGSDKIHHHHHHMQVNRLFQIIYILLEKNSVTARELAEKIEVSKRTIYRDIETLSTAGIPVYMTKGKGGGISILPNFILNKAILTEEEKSEIISSIRAVNAVNFSDSEAEKVLIKLNSILGENDTDWIEVDFSNWGNAEKEKETFNNLKTAILSKKVVKFDYSSAKGENISRKVCPLKLCFKGQSWYMYGYCGIRNDYRFFKLRRIKDLYVSEESFNIKAPKKIMKEDNVFYDEFITLKMKISSKMAYRIYDEFEDFKKLDDGSFIVTAEYPKGEWLFSYISSFGEECEVLAPQEIREEIKNKIEKMLLNYS", "soluble on expression in E. coli": "not soluble"}
